Source: patent US20220241335A1 (H LEE MOFFITT CANCER CENTER AND RESEARCH INST5ITUTE, published 2022)
Where a chain is given by its changes, count along the chain named.

T1: hNotch 3 (EGF5-EGF12) (human, UniProt Q9UM47 197-505, biotinylated (site not stated))
T1 construct: domain: EGF5-EGF12; Immobilised on the SPR chip through biotin; also called biotinylated Notch3
T1 sequence (looked up): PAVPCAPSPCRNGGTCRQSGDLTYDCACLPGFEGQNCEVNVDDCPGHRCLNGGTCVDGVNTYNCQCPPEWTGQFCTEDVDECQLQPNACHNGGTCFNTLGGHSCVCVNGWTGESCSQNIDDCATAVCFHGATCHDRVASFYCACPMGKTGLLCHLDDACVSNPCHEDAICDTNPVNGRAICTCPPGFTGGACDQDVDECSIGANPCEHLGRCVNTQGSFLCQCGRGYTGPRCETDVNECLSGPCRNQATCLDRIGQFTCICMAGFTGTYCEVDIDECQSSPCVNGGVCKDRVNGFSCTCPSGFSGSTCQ

T2: hNotch 2 (EGF6-EGF13) (human, UniProt Q04721 221-530, biotinylated (site not stated))
T2 construct: domain: EGF6-EGF13; Immobilised on the SPR chip through biotin; also called biotinylated Notch2
T2 sequence (looked up): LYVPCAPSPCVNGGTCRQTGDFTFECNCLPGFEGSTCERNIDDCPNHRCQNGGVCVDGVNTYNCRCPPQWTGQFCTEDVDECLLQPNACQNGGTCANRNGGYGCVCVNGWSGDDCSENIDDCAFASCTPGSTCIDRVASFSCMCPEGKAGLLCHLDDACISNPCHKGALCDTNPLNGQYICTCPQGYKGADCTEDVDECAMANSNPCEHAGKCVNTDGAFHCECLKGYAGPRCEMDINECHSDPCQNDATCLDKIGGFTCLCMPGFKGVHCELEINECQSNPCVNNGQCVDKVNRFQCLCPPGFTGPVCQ

B1: WT hDLL4 (N-EGF3) (ligand)
chain: SGVFQLQLQEFINERGVLASGRPCEPGCRTFFRVCLKHFQAVVSPGPCTFGTVSTPVLGTNSFAVRDDSSGGGRNPLQLPFNFTWPGTFSLIIEAWHAPGDDLRPEALPPDALISKIAIQGSLAVGQNWLLDEQTSTLTRLRYSYRVICSDNYYGDNCSRLCKKRNDHFGHYVCQPDGNLSCLPGWTGEYCQQPICLSGCHEQNGYCSKPAECLCRPGWQGRLCNECIPHNGCRHGTCSTPWQCTCDEGWGGLFCDQDLNYCTHHSPCKNGATCSNSGQRSYTCTCRPGYTGVDCE
notes: also called WT DLL4; wildtype
B2: 3a.5_E12 (N-EGF3) (ligand)
chain: B1 chain with G2S, F81L, I117F, H168Y, L180P, N231P, T245L, F254Y, S275R, Q279P
notes: also called DLL4.v3; N3a.5_E12

How the values were obtained:
[1] = molecular target: Notch1 (as used for the SPR of Example 1); test: SPR
hNotch 3 (EGF5-EGF12) [2] = molecular target: T1, hNotch 3 (EGF5-EGF12); test: SPR, biotinylated Notch on chip, 1:1 equilibrium binding model
Protocol: (§1) 100. Next, the binding affinity of each individual variant was determined by surface plasmon resonance. Biotinylated Notch1, Notch2, or Notch3 proteins containing the domains indicated above were immobilized on a surface plasmon resonance sensor chip. Increasing concentrations of WT DLL4 or DLL4.v3 were then flowed over the chip and dissociation constants were determined by fitting the data to a 1:1 equilibrium binding model. As shown in FIG. 4 and Table 3, the binding affinity of DLL4.v3 was at least 3 orders of magnitude stronger than wildtype.

hNotch 1 (EGF6-EGF13) [3] = molecular target: T3, hNotch 1 (EGF6-EGF13) (human, UniProt P46531 218-526, biotinylated (site not stated)); test: as above
T3 construct: domain: EGF6-EGF13; Immobilised on the SPR chip through biotin; also called biotinylated Notch1
Protocol: as §1

hNotch 2 (EGF6-EGF13) [4] = molecular target: T2, hNotch 2 (EGF6-EGF13); test: as above
Protocol: as §1

hNotch 3 (EGF5-EGF12) [5] = molecular target: T1, hNotch 3 (EGF5-EGF12); test: SPR
Protocol: as §1

hNotch 1 (EGF6-EGF13) [6] = molecular target: T3, hNotch 1 (EGF6-EGF13); test: SPR
Protocol: as §1

hNotch 2 (EGF6-EGF13) [7] = molecular target: T2, hNotch 2 (EGF6-EGF13); test: SPR
Protocol: as §1

Row | Molecule | Kd [1] | Kd (hNotch 3 (EGF5-EGF12) [2]) | Kd (hNotch 1 (EGF6-EGF13) [3]) | Kd (hNotch 2 (EGF6-EGF13) [4]) | binding affinity relative to wildtype (hNotch 3 (EGF5-EGF12) [5]) | binding affinity relative to wildtype (hNotch 1 (EGF6-EGF13) [6]) | binding affinity relative to wildtype (hNotch 2 (EGF6-EGF13) [7])
1 | wild type rat DLL4 (from UniProt D3ZHH1 27-401) (ligand) | 12.7 µM | – | – | – | – | – | –
2 | B1 | – | 22 µM | 17.9 µM | 35.7 µM | – | – | –
3 | B2 | – | 0.0273 µM | 0.02 µM | 0.0314 µM | ~1000 fold | ~1000 fold | ≥ 1000 fold
